Laboratory results taken from the RNAGym collection of RNA variant scans (doi:10.1073/pnas.2313332121).
Fewer inactive variants are shown than the library holds.

B1: TPR 5TU (parent)
chain: GGAUCUUCUCGAUCUAACAAAAAAGACAAAUCUGCCACAAAGCUUGAGAGCAUCUUCGGAUGCAGAGGCGGCAGCCUUCGGUGGCGCGAUAGCGCCAACGUUCUCAACUAUGACACGCAAAACGCGUGCUCCGUUGAAUGGAGUUUAUCAUG

Variants of: B1
Assay: polymerase ribozyme fitness, log enrichment relative to wild type (log ratio); higher = more active; in vitro selection for triplet polymerase activity
In short: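 Genotype fitness is the logarithm of its enrichment divided by wild-type enrichment, using inverse-variance-weighted averages of replicates. That logarithm is base 2. Enrichment was measured by Illumina sequencing of input and output libraries from one triplicate in vitro selection round, with frozen incubation at −7 °C, on PCR-built, transcribed mutant libraries of each subunit of a heterodimeric triplet polymerase ribozyme, retaining genotypes with ≥10 input reads and ≥1 read per output.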

Variant | polymerase ribozyme fitness (log ratio)
GGAUCUUCUCGAUCUAACAAAAAAGACAAAUCUGCCACAAAGCUUGAGAGCAUCUUCGGAUGCAGAGGCGGCAGUCUUCGGUGGCGCGAUAUCGCCAACGUUCUGAACUAUGACUCGCAAAACGCGUGCUCCGUUGAAUGGAGUUUAUCAUG [C75U G92U C105G A115U] | -4.17
GGAUCUUCUCGAUCUAACAAAAAAGACAAAUCUGCCACAAAGCUUGAGAGCAUCUUCGGAUGCAGAGGCGGCAGCAUUCGGUGGCGCGAUAGCGCCAACGUUCUCAACUAUGACACGCAAAACGCGUGCUCCGUUGGAUGGAGUUUAUCAUG [C76A A137G] | -1.07
GGAUCUUCUCGAUCUAACAAAAAAGACAAAUCUGCCACAAAGCUUGAGAGCAUCUUCGGAUGCAGAGGCGGCAGCAUUCGGUGGGGUGAUAGCGCCAACGUUCUCAACUAUGACACGCAAAACGCGUGCUCCGUUGAAUGCCGUUUAUCAUG [C76A C85G C87U G141C A142C] | ≤ -4.2
GGAUCUUCUCGAUCUAACAAAAAAGACAAAUCUGCCACAAAGCUUGAGAGCAUCUUCGGAUGCAGAGGCGGCAGCAUUCGGUGGAGCGAUAGCGCCAACGUUCUCAACUAUGACACGCAAAACGCGUGCUCCGUUGAAUGGAUUUUAUCAUG [C76A C85A G143U] | ≤ -4.2
GGAUCUUCUCGAUCUAACAAAAAAGACAAAUCUGCCACAAAGCUUGAGAGCAUCUUCGGAUGCAGAGGCGGCAGCAUUCGGUGGCGCGAUAGCGCCAACGUUCUCAGCUAUGACACGCAAAAUGCGUGCUCCGUUGAAUGGCGUUUAUCAUG [C76A A107G C123U A142C] | -3.65
GGAUCUUCUCGAUCUAACAAAAAAGACAAAUCUGCCACAAAGCUUGAGAGCAUCUUCGGAUGCAGAGGCGGCAGUCUUCGGUGGCGCGAUAGCGCCAACGUUCUCAACUAUGACACGCAAAACGCGUGCUCCGUUGAAUGCAGUUUAUCAUG [C75U G141C] | -1.98
GGAUCUUCUCGAUCUAACAAAAAAGACAAAUCUGCCACAAAGCUUGAGAGCAUCUUCGGAUGCAGAGGCGGCAGUCUUCGGUGGCGCGAUAGCGCCAACGUUCUCAACUAUGACACGCAAAACGCGUGCUCCGUUAAAUGGAGUUUAUCAUG [C75U G136A] | 1.26
GGAUCUUCUCGAUCUAACAAAAAAGACAAAUCUGCCACAAAGCUUGAGAGCAUCUUCGGAUGCAGAGGCGGCAGCAUUCGGUGGCGCGAUAGCGCCAACGUUCUCAACUAUGACACGCAAGACGCGUGCUCCGUUGAAUGGAGUUUAUCAUG [C76A A121G] | 0.0173
GGAUCUUCUCGAUCUAACAAAAAAGACAAAUCUGCCACAAAGCUUGAGAGCAUCUUCGGAUGCAGAGGCGGCAGCAUUCGGUGGCGCGUUAGCGCCAACGUUCUCAACUAUGACACGCAAAACGCGUGCUCCGUUGAAUGUAGUUUAUCAUG [C76A A89U G141U] | -2.94
GGAUCUUCUCGAUCUAACAAAAAAGACAAAUCUGCCACAAAGCUUGAGAGCAUCUUCGGAUGCAGAGGCGGCAGCAUUCGGUGGCGCGAUCGCGCCAACGUUCUCAACUAUGACACGCAAAACGCGUCCUCCGUUGAAUGGAAUUUAUCAUG [C76A A91C G128C G143A] | ≤ -4.2
GGAUCUUCUCGAUCUAACAAAAAAGACAAAUCUGCCACAAAGCUUGAGAGCAUCUUCGGAUGCAGAGGCGGCAGCAUUCGGUGGCGCGCUAGCGCCAACGUUCUCAACUAUGACACGCAAAACGCGUGCUCCGUUGAAUGGAGUUUAUCAUG [C76A A89C] | -0.238
GGAUCUUCUCGAUCUAACAAAAAAGACAAAUCUGCCACAAAGCUUGAGAGCAUCUUCGGAUGCAGAGGCGGCAGCAUUCGGUGGAGCGAUAACUCCAACGUUAUCAAUUAUGACACGCAAACCGCGUGCUCCGUUGAAUGGAGUUUAUCAUG [C76A C85A G92A G94U C103A C108U A122C] | ≤ -4.2
GGAUCUUCUCGAUCUAACAAAAAAGACAAAUCUGCCACAAAGCUUGAGAGCAUCUUCGGAUGCAGAGGCGGCAGCAUUCGGUGGCGCGAUAGCGCCAACGUUCUCAACUUUGACACGCAAAACGCGUGCUCCGUUGAACGGAUUUUAUCAUG [C76A A110U U139C G143U] | ≤ -4.2
GGAUCUUCUCGAUCUAACAAAAAAGACAAAUCUGCCACAAAGCUUGAGAGCAUCUUCGGAUGCAGAGGCGGCAGCAUUCGGUGGCGCGAUAGCGCCAUCGUUCUCAACUAUGACACGCAAAACGCGUGCUCCGUUAAAUGGAGUAUAUCAUG [C76A A98U G136A U145A] | 0.194
GGAUCUUCUCGAUCUAACAAAAAAGACAAAUCUGCCACAAAGCUUGAGAGCAUCUUCGGAUGCAGAGGCGGCAGCAUUCGGUGGAGCGAUAGCGCCAACGUUCUCAACUAUGACACGCAAGACGCGUGCUCCGUUGAAUGGAGUUUAUCAUG [C76A C85A A121G] | -2.03
GGAUCUUCUCGAUCUAACAAAAAAGACAAAUCUGCCACAAAGCUUGAGAGCAUCUUCGGAUGCAGAGGCGGCAGCAUUCGGUGGCGCGAUAGCGCCAACGUUCUCAGCUAUGACACGCAAAACGCGUGCUCCGUUGAAUGGAGUCUAUCAUG [C76A A107G U145C] | ≤ -4.2
GGAUCUUCUCGAUCUAACAAAAAAGACAAAUCUGCCACAAAGCUUGAGAGCAUCUUCGGAUGCAGAGGCGGCAGUCUUCGGCGGCGCGAUAGCGCCAACGUUCUCAACUAUGACAAGCAAAACGCGUGCUCCGUUGAAUGGAGUUUAUCAUG [C75U U82C C116A] | 0.695
GGAUCUUCUCGAUCUAACAAAAAAGACAAAUCUGCCACAAAGCUUGAGAGCAUCUUCGGAUGCAGAGGCGGCAGUCUUCGGUGGCGCGAUAUCGCCAACGUUCUCAACUAUGACACGCAAAACGCGUGCUCCGUUGAAUGGAGUUUAUCAUG [C75U G92U] | -2.38
GGAUCUUCUCGAUCUAACAAAAAAGACAAAUCUGCCACAAAGCUUGAGAGCAUCUUCGGAUGCAGAGGCGGCAGCAUUCGGUGGGGCGAUAGCGCCAACGUUCUCAACUAUGACACGCAAAACGCGUGCUCCGUUGAAUGGAGUUUAUCAUG [C76A C85G] | -3.53
